Publication PMC11334520, “In vitro higher-order oligomeric assembly of the respiratory syncytial virus M2-1 protein with longer RNAs”

T1: M2-1 (human respiratory syncytial virus …, UniProt P04545 1-194)
T1 sequence: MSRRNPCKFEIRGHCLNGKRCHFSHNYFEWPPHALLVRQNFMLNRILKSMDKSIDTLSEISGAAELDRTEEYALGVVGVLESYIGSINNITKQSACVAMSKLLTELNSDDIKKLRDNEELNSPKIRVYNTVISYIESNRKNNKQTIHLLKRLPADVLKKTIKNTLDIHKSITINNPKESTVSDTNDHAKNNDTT


Assays:
Conditions in all cases: protein: recombinant; tags: N-terminal His6-GFP, cleaved with TEV; chain copies: 4
M2-1 [1] = target: T1, M2-1; test: EMSA; 0.5 uM RNA; Hill 0.83; EMSA: 20 mM HEPES pH 7.5, 200 mM NaCl, 2 mM TCEP, 5% glycerol, room temperature 1 h, 4% native PAGE, SYBR Gold; SEC: Superdex 200 Increase 10/300, buffer not given
M2-1 [2] = target: T1, M2-1; test: EMSA; 0.5 uM RNA; Hill 0.95; EMSA: 20 mM HEPES pH 7.5, 200 mM NaCl, 2 mM TCEP, 5% glycerol, room temperature 1 h, 4% native PAGE, SYBR Gold; SEC: Superdex 200 Increase 10/300, buffer not given
M2-1 [3] = target: T1, M2-1; test: SEC; excess RNA; EMSA: 20 mM HEPES pH 7.5, 200 mM NaCl, 2 mM TCEP, 5% glycerol, room temperature 1 h, 4% native PAGE, SYBR Gold; SEC: Superdex 200 Increase 10/300, buffer not given
M2-1 [4] = target: T1, M2-1; test: EMSA; 0.5 uM RNA; Hill 5.17; EMSA: 20 mM HEPES pH 7.5, 200 mM NaCl, 2 mM TCEP, 5% glycerol, room temperature 1 h, 4% native PAGE, SYBR Gold; SEC: Superdex 200 Increase 10/300, buffer not given
M2-1 [5] = target: T1, M2-1; test: EMSA; 0.5 uM RNA; Hill 8.10; EMSA: 20 mM HEPES pH 7.5, 200 mM NaCl, 2 mM TCEP, 5% glycerol, room temperature 1 h, 4% native PAGE, SYBR Gold; SEC: Superdex 200 Increase 10/300, buffer not given

| Binder | binding result (M2-1 [3]) | further results |
| --- | --- | --- |
| AAAAAAAAA (ssRNA) [Poly9A] |  | Kd (M2-1 [1]): 1.94 µM |
| AAAAAAAAAAAAAA (ssRNA) [Poly14A] |  | Kd (M2-1 [2]): 0.58 µM |
| AGUUAAUUAAAAAUAG (ssRNA) [SH16(+)] | binds |  |
| AAAAAAAAAAAAAAAAAAA (ssRNA) [Poly19A] |  | Kd (M2-1 [4]): 2.72 µM |
| CUAUUUUUAAUUAACU (ssRNA) [SH16(-)] | no binding |  |
| AAAAAAAAAAAAAAAA (ssRNA) [Poly16A] | binds |  |
| UUUUUUUUUUUUUUUU (ssRNA) [Poly16U] | no binding |  |
| CCCCCCCCCCCCCCCC (ssRNA) [Poly16C] | no binding |  |
| AAAAAAAAAAAAAAAAAAAAAAAA (ssRNA) [Poly24A] |  | Kd (M2-1 [5]): 4.44 µM |
| UUUUUUUUUUUUUUUUUUUUU (ssRNA) [Poly21U] | binds |  |
| UUUUUUUUUUUUUUUUUUUUUUUUUUUU (ssRNA) [Poly28U] | binds |  |
